Aggregate size data for two substances are collected here from patent publication US20040157289.

Series [1] is described as follows: aggregate size given for comparison with the gel exclusion result, self-association.
The nature of series [2]: Superose gel exclusion chromatography, self-association.

In the case of “wild type α-crystallin (alpha A crystallin)”, the aggregate size entry in series [1] was “about 800,000 daltons, depending on solution conditions”.

In the case of alpha A crystallin Δ51+ construct, the aggregate size entry in series [2] was “calculated to be 60,000 daltons, which corresponds in size to a tetramer”.
